One block for each binder: values may come before it.
Columns and labels:
[1] = target: T1, cyclo(CGQKLVG) conjugated to BSA (also: conjugated to BSA); test: ELISA and SPR on peptide-BSA conjugates
T1 construct: BSA carrier is not written as a chain
T1 peptide: cyclo(CGQKLVG)

[2] = target: T2, A-beta42 oligomers (synthetic, commercially prepared, SynAging SAS) (human); test: cell-based or functional assay
[3] = target: T3, cyclo(CGHDSGG) conjugated to BSA (also: conjugated to BSA); test: ELISA and SPR on peptide-BSA conjugates
T3 construct: BSA carrier is not written as a chain
T3 peptide: cyclo(CGHDSGG)

[4] = target: T2, A-beta42 oligomers (synthetic, …); test: ProteOn biosensor, antibody captured or amine-coupled on GLM chip, AbO 12.3 nM to 1 uM; approximate kinetic value
[5] = target: T4, cyclo(CGHHQKG) conjugated to BSA (also: conjugated to BSA); test: ProteOn biosensor, antibody amine-coupled on GLH chip, cyclo-BSA 111 pM to 9 nM
T4 construct: HHQK are A-beta residues 13-16; C and G residues are linker; BSA carrier is not written as a chain; also called Cyclo-BSA
T4 peptide: cyclo(CGHHQKG)
Protocol: Cyclo-BSA 3-fold dilutions were used from 9 nM to 111 pM. Assay buffer was PBS-E+0.05% Tween+10 mg/ml BSA.

[6] = target: T4, cyclo(CGHHQKG) conjugated to BSA; test: ELISA and SPR on peptide-BSA conjugates

T2 sequence (peptide, as listed by the source): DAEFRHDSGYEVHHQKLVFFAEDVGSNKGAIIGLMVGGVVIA

B3: antibody 305-61 (IgG3, kappa), raised against cyclo(CGQKLVG) (antibody, V domains shown)
VH: QVQLQQSGAELVRPGASVTLSCKASGYTFTDYEMHWVKQTPVHGLEWIGAIDPETGDTAYNQEFKGKATLTADKSSSTAYMELRSLTSEDSAVYYCTSPIYYDYDWFAYWGHGTLVTVSA
VL: DIVMSQSPSSLAVSAGEKVTMSCKSSQSLLNNRTRKNYLAWYQQKPGQSPKLLIYWASTRESGVPDRFTGSGSGTDFTLTISSVQAEDLAVYYCKQSYNLRTFGGGTKLEIKR
notes: Mouse IgG3/kappa; Entries as printed include the leader peptide and a few constant-region residues; also called 7E9.1
- remaining cell viability at a molar ratio of 1:2 (AβO:AB1) [2]: 80.1 % of control
- binding result [1]: binds

B4: antibody 303-25, raised against cyclo(CGHDSGG) (antibody, V domains shown)
VH: QVQLQQPGAELVRPGASVKLSCKASGYTFTSYWMNWVKQRPGQGLEWIGMIDPSDSQTHYNQMFKDKATLTVDKSSSTAYLQLSSLTSEDSAVYYCSRGGYWGQGTTLTVSS
VL: DIQMTQSPSSLSASLGGKVTITCKASQDINNYIAWYQHKPGKGPRQLIYYTSTLQPGIPSRFSGSGSGRDYSFTISDLEPEDIATYYCLQYDNLWTFGGGTKLEIK
notes: Mouse, kappa; Entries as printed include the leader peptide
- remaining cell viability at a molar ratio of 1:2 (AβO:AB1) [2]: 88.8 % of control
- binding result [3]: binds

B5: antibody 301-17 (hybridoma-purified, IgG3, kappa), raised against cyclo(CGHHQKG) (antibody, V domains shown)
VH: QVQLQQPGAELVKPGASVKMSCKASGYSFTSYWINWVKQRPGQGLEWIGDVHPGRGVSTYNAKFKSKATLTLDTSSSTAYMQLSSLTSEDSAVYYCSRSHGNTYWFFDVWGAGTTVTVSS
VL: DVLMTQTPLSLPVSLGDQASISCRSSQSIVHSNGNTYLEWYLQKPGQSPKLLIYKVSNRFSGVPDRFSGSGSGTDFTLKISRVEAEDLGVYYCFQGSHVPFTFGSGTKLEIKR
notes: Mouse IgG3/kappa
- Kd [4]: ~26.9 nM

Now from value to binder:

- binding result [1]: binds
B1: antibody 305-59 (IgG1, kappa), raised against cyclo(CGQKLVG) (antibody, V domains shown)
VH: EVQLQQSGAELVKPGASVKLSCTVSGFNIKDTYVHWVKQRPEQGLEWIGRIAPASGNTKYAPNFQDKATITADTSSNTAYLQLNSLTSEDTAVYYCARHVYWGQGTLVTVSA
VL: SIVMTQTPKFLLVSAGDRVTITCKASQSVSNDVVWYQQKPGQSPKLLIYYASNRYTGVPDRFTGSGYGTDFTFTISTVQAEDLAVYFCQQDYISPYTFGGGTKLEIK
notes: Mouse IgG1/kappa; Entries as printed include the leader peptide; also called 59 (5G1)

- binding result [1]: binds
B2: antibody 305-62 (IgG1, kappa), raised against cyclo(CGQKLVG) (antibody, V domains shown)
VH: QVTLKESGPGILKPSQTLSLTCSFSGFSLSTSGMGVGWIRQPSGKGLEWLAHIWWDDDKYYNPSLKSQLTISKDTSRNQVFLKITSVDTADTATYYCARSITTVVATPFDYWGQGTTLTVSS
VL: DIVMTQSQKFMSTSVGDRVSITCKASQNVRSAVAWYQQKPGQSPKALIYLASNRHTGVPDRFTGSGSGTDFTLTISNVHSEDLTDYFCLQHWNSPFTFGGGTKLEIKR
notes: Mouse IgG1/kappa; Entries as printed include the leader peptide and a few constant-region residues

- Kd [4]: 16.2 to 19.5 nM
- Kd [5]: ~0.017 nM
B6: recombinant 301-17 IgG2a (antibody, V domains shown)
VH: B5 VH
VL: B5 VL

- binding result [6]: binds
B7: antibody 301-11 (IgG3, kappa), raised against cyclo(CGHHQKG) (antibody, V domains shown)
VH: EVQLVESGGGLVKPGGSLKLSCAASGFTFSDYYMYWVRQTPEKRLEWVATISDGGSYTSYPDSVKGRFTISRDNAKNNLYLQMSSLRSEDTAMYYCARDYYGSSSYTSGFAYWGQGTLVTVSA
VL: DIVMSQSPSSLAVSTGEKVTMSCKSSQSLLNSRTRKNYLAWYQQKPGQSPKLLIYWASTRESGVPDRFTGSGSGTDFTLTISSVQAEDLAVYYCKQSYNLYTFGGGTKLEIK
notes: Mouse IgG3/kappa; Entries as printed include the leader peptide

Source: patent publication US20190151401A1 (UNIVERSITY OF BRITISH COLUMBIA, published 2019)
